B1: HKU1 isolate N1 (genotype A) RBD, wildtype, without avi tag (domain or fragment)
chain: RIPDLPDCDIDKWLNNFNVPSPLNWERKIFSNCNFNLSTLLRLVHTDSFSCNNFDESKIYGSCFKSIVLDKFAIPNSRRSDLQLGSSGFLQSSNYKIDTTSSSCQLYYSLPAINVTINNYNPSSWNRRYGFNNFNLSSHSVVYSRYCFSVNNTFCPCAKPSFASSCKSHKPPSASCPIGTNYRSCESTTVLDHTDWCRCSCLPDPITAYDPRSCSQKKSLVGVGEHCAGFGVDEEKCGVLDGSYNVSCLCSTDAFLGWSYDTCVSNNRCNIFSNFILNGINSGTTCSNDLLQPNT
notes: also called HKU1 RBD; HKU1 RBD (without avi tag); not shown: His8, C-terminal, kept
B2: HKU1 spike (S) glycoprotein: S357A (protein)
parent chain: MLLIIFILPTTLAVIGDFNCTNFAINDLNTTVPRISEYVVDVSYGLGTYYILDRVYLNTTILFTGYFPKSGANFRDLSLKGTTYLSTLWYQKPFLSDFNNGIFSRVKNTKLYVNKTLYSEFSTIVIGSVFINNSYTIVVQPHNGVLEITACQYTMCEYPHTICKSKGSSRNESWHFDKSEPLCLFKKNFTYNVSTDWLYFHFYQERGTFYAYYADSGMPTTFLFSLYLGTLLSHYYVLPLTCNAISSNTDNETLQYWVTPLSKRQYLLKFDNRGVITNAVDCSSSFFSEIQCKTKSLLPNTGVYDLSGFTVKPVATVHRRIPDLPDCDIDKWLNNFNVPSPLNWERKIFSNCNFNLSTLLRLVHTDSFSCNNFDESKIYGSCFKSIVLDKFAIPNSRRSDLQLGSSGFLQSSNYKIDTTSSSCQLYYSLPAINVTINNYNPSSWNRRYGFNNFNLSSHSVVYSRYCFSVNNTFCPCAKPSFASSCKSHKPPSASCPIGTNYRSCESTTVLDHTDWCRCSCLPDPITAYDPRSCSQKKSLVGVGEHCAGFGVDEEKCGVLDGSYNVSCLCSTDAFLGWSYDTCVSNNRCNIFSNFILNGINSGTTCSNDLLQPNTEVFTDVCVDYDLYGITGQGIFKEVSAVYYNSWQNLLYDSNGNIIGFKDFVTNKTYNIFPCYAGRVSAAFHQNASSLALLYRNLKCSYVLNNISLTTQPYFDSYLGCVFNADNLTDYSVSSCALRMGSGFCVDYNSPSSSSSRRKRRSISASYRFVTFEPFNVSFVNDSIESVGGLYEIKIPTNFTIVGQEEFIQTNSPKVTIDCSLFVCSNYAACHDLLSEYGTFCDNINSILDEVNGLLDTTQLHVADTLMQGVTLSSNLNTNLHFDVDNINFKSLVGCLGPHCGSSSRSFFEDLLFDKVKLSDVGFVEAYNNCTGGSEIRDLLCVQSFNGIKVLPPILSESQISGYTTAATVAAMFPPWSAAAGIPFSLNVQYRINGLGVTMDVLNKNQKLIATAFNNALLSIQNGFSATNSALAKIQSVVNSNAQALNSLLQQLFNKFGAISSSLQEILSRLDALEAQVQIDRLINGRLTALNAYVSQQLSDISLVKFGAALAMEKVNECVKSQSPRINFCGNGNHILSLVQNAPYGLLFMHFSYKPISFKTVLVSPGLCISGDVGIAPKQGYFIKHNDHWMFTGSSYYYPEPISDKNVVFMNTCSVNFTKAPLVYLNHSVPKLSDFESELSHWFKNQTSIAPNLTLNLHTINATFLDLYYEMNLIQESIKSLNNSYINLKDIGTYEMYVKWPWYVWLLISFSFIIFLVLLFFICCCTGCGSACFSKCHNCCDEYGGHHDFVIKTSHDD

target: human TMPRSS2 ectodomain, active (S441), with the C379-T447C disulfide bond (human, UniProt O15393 106-492, T447C); assay: enzyme inhibition kinetics (fluorogenic peptide substrate); 5 nM TMPRSS2 with serial dilutions of Boc-QAR-AMC in the presence of 215, 72 or 24 nM HKU1 RBD, 2 min preincubation, 22 °C; fit of competitive inhibition; settings: both partners purified

Question: Which Ki does the source give for B1 here?
Answer: 38 ± 5 nM

target: HKU1 isolate N1 (genotype A) RBD, wildtype, avi-tagged and biotinylated (UniProt Q5MQD0); assay: BLI; settings: parent: est. 0.51; read off a plot

Question: For “human TMPRSS2 ectodomain, active (S441), with the C379-T447C disulfide bond (from UniProt O15393) R470A”, which response is on record?
Answer: 0.15 nm

Question: With “human TMPRSS2 ectodomain, active (S441), with the C379-T447C disulfide bond (from UniProt O15393) Y414A” as the molecule, how does the response read?
Answer: 0.11 nm

Question: For “human TMPRSS2 ectodomain, active (S441), with the C379-T447C disulfide bond (from UniProt O15393) Y469A”, which response is on record?
Answer: 0.36 nm

same assay, conditions: read off a plot

Question: For “human TMPRSS2 ectodomain, active (S441), with the C379-T447C disulfide bond (from UniProt O15393) A468P”, which percent of parent is on record?
Answer: 57 % WT

Question: Which percent of parent does the source give for “human TMPRSS2 ectodomain, active (S441), with the C379-T447C disulfide bond (from UniProt O15393) D417N” here?
Answer: 7.5 % WT

Question: For “human TMPRSS2 ectodomain, active (S441), with the C379-T447C disulfide bond (from UniProt O15393) K340D”, which percent of parent is on record?
Answer: 38 % WT

Question: With “human TMPRSS2 ectodomain, active (S441), with the C379-T447C disulfide bond (from UniProt O15393) L419A” as the molecule, how does the percent of parent read?
Answer: 2.7 % WT

Question: For “human TMPRSS2 ectodomain, active (S441), with the C379-T447C disulfide bond (from UniProt O15393) L419M”, which percent of parent is on record?
Answer: 30 % WT

Question: For “human TMPRSS2 ectodomain, active (S441), with the C379-T447C disulfide bond (from UniProt O15393) R409K”, which percent of parent is on record?
Answer: 36 % WT

Question: For “human TMPRSS2 ectodomain, active (S441), with the C379-T447C disulfide bond (from UniProt O15393) R409T”, which percent of parent is on record?
Answer: 58 % WT

Question: Which percent of parent does the source give for “human TMPRSS2 ectodomain, active (S441), with the C379-T447C disulfide bond (from UniProt O15393) R413K” here?
Answer: 52 % WT

Question: With “human TMPRSS2 ectodomain, active (S441), with the C379-T447C disulfide bond (from UniProt O15393) R413V” as the molecule, how does the percent of parent read?
Answer: 64 % WT

Question: For “human TMPRSS2 ectodomain, active (S441), with the C379-T447C disulfide bond (from UniProt O15393) R470K”, which percent of parent is on record?
Answer: 2.1 % WT

Question: With “human TMPRSS2 ectodomain, active (S441), with the C379-T447C disulfide bond (from UniProt O15393) S412N” as the molecule, how does the percent of parent read?
Answer: 77 % WT

Question: With “human TMPRSS2 ectodomain, active (S441), with the C379-T447C disulfide bond (from UniProt O15393) S441A” as the molecule, how does the percent of parent read?
Answer: 95 % WT

Question: For “human TMPRSS2 ectodomain, active (S441), with the C379-T447C disulfide bond (from UniProt O15393) S463F”, which percent of parent is on record?
Answer: 2.3 % WT

Question: Which percent of parent does the source give for “human TMPRSS2 ectodomain, active (S441), with the C379-T447C disulfide bond (from UniProt O15393) S463T” here?
Answer: 2.7 % WT

Question: For “human TMPRSS2 ectodomain, active (S441), with the C379-T447C disulfide bond (from UniProt O15393) S463Y”, which percent of parent is on record?
Answer: 2.3 % WT

Question: With “human TMPRSS2 ectodomain, active (S441), with the C379-T447C disulfide bond (from UniProt O15393) T341S” as the molecule, how does the percent of parent read?
Answer: 61 % WT

Question: Which percent of parent does the source give for “human TMPRSS2 ectodomain, active (S441), with the C379-T447C disulfide bond (from UniProt O15393) V415I” here?
Answer: 47 % WT

Question: For “human TMPRSS2 ectodomain, active (S441), with the C379-T447C disulfide bond (from UniProt O15393) Y414L”, which percent of parent is on record?
Answer: 2.2 % WT

Question: With “human TMPRSS2 ectodomain, active (S441), with the C379-T447C disulfide bond (from UniProt O15393) Y414S” as the molecule, how does the percent of parent read?
Answer: 14 % WT

Question: Which percent of parent does the source give for “human TMPRSS2 ectodomain, active (S441), with the C379-T447C disulfide bond (from UniProt O15393) Y469N” here?
Answer: 5.7 % WT

target: human TMPRSS2 ectodomain harboring the S441A residue substitution and the C379-T447C disulfide bond (UniProt O15393); assay: BLI; settings: parent: est. 0.54; read off a plot

Question: Which response does the source give for “HKU1 isolate N1 (genotype A) RBD, wildtype, avi-tagged and biotinylated (from UniProt Q5MQD0) E505A” here?
Answer: 0.37 nm

Question: Which response does the source give for “HKU1 isolate N1 (genotype A) RBD, wildtype, avi-tagged and biotinylated (from UniProt Q5MQD0) H488A” here?
Answer: 0.17 nm

Question: Which response does the source give for “HKU1 isolate N1 (genotype A) RBD, wildtype, avi-tagged and biotinylated (from UniProt Q5MQD0) Y528A” here?
Answer: 0.11 nm

target: not given; assay: not given; settings: glycan lost

Question: With B2 as the molecule, how does the “other: neutralisation sensitivity, other: geometric mean ID50 dilution” value read?
Answer: increases
